One test deals with CXCR4-LgBiT (UniProt P61073).
In another test the target is ACKR3-LgBiT (UniProt P25106).
Test [1] concerns the target CXCR4 N-terminally fused to Nanoluciferase (UniProt P61073). Briefly: FRET or BRET; NanoBRET ligand binding competition; HEK293T cells stably expressing the receptor N-terminally fused to Nanoluciferase; increasing concentrations of ligands with 10 nM CXCL12-AZ568; 2 h on ice. In general terms: In BRET a luciferase serves as donor, and the signal depends on an acceptor being close.

Test [2] deals with C-X-C chemokine receptor type 4 (CXCR4), endogenous on SupT1 cells (human (endogenous in SupT1)) (UniProt P61073).
Test [3] concerns the target T1, CXCR4 N-terminally fused to Nanoluciferase (UniProt P61073 1-352).
T1 construct: also called CXCR4 fused to a Nanoluciferase
Briefly: FRET or BRET; NanoBRET ligand binding competition; HEK293T cells stably expressing the receptor N-terminally fused to Nanoluciferase; increasing concentrations of ligands with 10 nM CXCL12-AZ568; 2 h on ice. The settings on record: one partner purified.

The target in test [4] is T2, C-X-C chemokine receptor type 4 (CXCR4), endogenous on SupT1 cells (human (endogenous in SupT1), UniProt P61073 1-352). Briefly: flow cytometry on cells; competition with PE-conjugated anti-human CXCR4 antibody clone 1D9 (N-terminus) on 5 x 10^4 SupT1 cells; compounds serially diluted in cold PBS; 90 min at 4 °C; MFI normalized to full stain (100%) and unstained (0%). The settings on record: one partner purified.

For test [5], the target named is T2, C-X-C chemokine receptor type 4 …. Briefly: flow cytometry on cells; competition with APC-conjugated anti-human CXCR4 antibody clone 12G5 (ECL-2) on 5 x 10^4 SupT1 cells; compounds serially diluted in cold PBS; 90 min at 4 °C; MFI normalized to full stain (100%) and unstained (0%). The settings on record: one partner purified.

The values that follow come from paper PMC12093852 (Cell Communication and Signaling : CCS, 2025).

For orientation: IC50 means the concentration that gives 50% inhibition. Higher therefore signals lower potency. “C-X-C motif chemokine ligand 12 (CXCL12), unlabelled (from UniProt P48061 22-93)”: the β-arrestin-2 recruitment to CXCR4 (NanoBiT, HEK293T) with CXCR4-LgBiT was 30 nM. The molecule also came in with a β-arrestin-2 recruitment to ACKR3 (NanoBiT, HEK293T) in the test with ACKR3-LgBiT of 30 nM. Also, the half-inhibitory concentration (IC50) in test [1] came to 36.7 nM. The molecule also had an inhibition of CXCR4-tropic HIV-1 infection of TZM-bl reporter cells in test [2] of 47.9 nM.

B1: G protein-coupled receptor 15 ligand (GPR15LG) (ligand, UniProt Q6UWK7 25-81, looked up)
chain: KRRPAKAWSGRRTRLCCHRVPSPNSTNLKGHHVRLCKPCKLEPEPRLWVVPGALPQV
notes: also called C10orf99; AP-57
Take B1: the IC50 in test [3] is 829 ± 139 nM; in test [4] it was roughly 12.1 µM; in test [5] it was 1300 ± 100 nM.
